Test results reported in paper PMC5025751.

Assays:
[1] = target: Fascin-bundled F-actin filaments (rabbit | not stated) (UniProt P68135); assay: transient kinetics, quenching of pyrene-actin fluorescence; myosin rapidly mixed with MgATP, then with pyrene-labelled actin (0-50 uM; single filaments or fascin bundles) with high MgADP to stop further cycling
[2] = target: Actin purified from rabbit skeletal muscle (F-actin filaments) (rabbit) (UniProt P68135); assay: as above
[3] = target: myosin X anti-parallel coiled-coil (Homo sapiens) (UniProt Q9HD67); conditions: cited from earlier work

| rate of pyrene-actin fluorescence quenching [1] | rate of pyrene-actin fluorescence quenching [2] | Substance | Kd [3] |
| --- | --- | --- | --- |
| 17 s⁻¹ | 18 s⁻¹ | Human myosin X MD-3IQ-SAH (S1, truncated at Gln 851) (from UniProt Q9HD67 1-851; P0DP23 1-149) (complex) | – |
| – | – | myosin X anti-parallel coiled-coil (from UniProt Q9HD67) | 0.6 µM |
| 34 s⁻¹ | 19 s⁻¹ | MyoX-HMM-A938 (truncated human Myo10 HMM, amino acids 1-938, 19 amino-acid linker, Leucine zipper, AVI tag, Flag tag) (from UniProt Q9HD67 1-938; P0DP23 1-149) (complex) | – |
